# Test: soluble on expression in E. coli; label from the status in PepcDB or PDB records
row,Sequence,soluble on expression in E. coli
1,MATNLIGLDTTQSQKLANALNNLLANYQVFYMNTRGYHWNIQGKEFFELHAKFEEIYTDLQLKIDELAERILTLSARPMHSFSGYLKAAQIKEHTDSIDGRSSMQGLVDGFSILLHQQRDILELAGETGDEGTSALMSDYIREQEKLVWMLNAWLK,not soluble
2,MRILSLSFSNLNSLKGEWKIDFSASPFAENGLFAITGPTGAGKTTILDAICLALYHKTPRLGGISTSSNEIMTRGTAECSAEVEFEVKGKAYRAFWSQRRSRGKVDGNLQAATVELAEVDSEKVLATQVKKKDELINTITGLDFSRFTKSMMLSQGQFAAFLNADANDRAGLLEELTGTEIYGQISEKVHEHYTASKQKLAELKAKAEGVELLSEEDKQALIDEQTELQANQKQQQAQL,not soluble
3,MWRVGVYSSLRGYKRLNFCCEMLIAAYPKVGECAREGLMDKEVCINAAKGRFLGLRLPELFGGSDMRLNRSCRRRNMKLAAWCMLIQCDSRGGNHAAEVREIGDITKIAICQQCDFECAGPSANFKVTRLQGLRTLKAANRSESLNVEGCYALQSLLM,not soluble
4,MEMEKEFEQIDKSGSWAAIYQDIRHEASDFPCRVAKLPKNKNRNRYRDVSPFDHSRIKLHQEDNDYINASLIKMEEAQRSYILTQGPLPNTCGHFWEMVWEQKSRGVVMLNRVMEKGSLKCAQYWPQKEEKEMIFEDTNLKLTLISEDIKSYYTVRQLELENLTTQETREILHFHYTTWPDFGVPESPASFLNFLFKVRESGSLSPEHGPVVVHCSAGIGRSGTFCLADTCLLLMDKRKDPSSVDIKKVLLDMRKFRMGLIATAEQLRFSYLAVIEGAKFIMGDSSVQDQWKELSHEDLEPPPEHIPPPPRPPKRILEPHNGKCREFFPN,soluble
5,LQEPMYVYSHDGLLIAIFGEIRRYPVQIKEVPEQLKQAFLATEDARFYEHSGIDYKGIARAIWLLATTNEKRVPGGSTITQQVARQFFLNSEYSYKRKLAEILLARKIESQLKKDEILELYLNKSFFGNRAYGIAAAAEFYYGKKLNELNLDEMASLAGIPKFPSS,not soluble
6,MNPIVVLGSKVVDGQVTGLLASRLEKAIEVSSLTPEAPVVVSGFGEAAAMADYLRARGVTTIVEEPWATSTNENLENAHALFPDTLQWTVVTSGFHAWRTYLWAWHLGIPIKVVTARTPSAERLGMAMRECFALPHSTLRVLWRKIRTPKNLEHHHHHH,soluble
7,MGSDKIHHHHHHVTIPTQAKFTLRGRNPDVLSCIANLSNDEVFTPPEFAARMLDTLAQAWAEDHGGANLWADPTVRFLDPCTKSGVFLREITRRLVEGLAEQMPDLQKRVDHILTRQVFGIGITRLTALLARRSVYCSKYANGPHSIAKSFTTEAGNIWFERVEHTWKNGRCVYCGASQGTLDRGEELESHAYAFIHTDDIKTRITEIFGDDMQFDVIIGNPPYQLASDGGTRDIPIYQHFVEQAKKLDPKYLVMVIPSRWMASGLGLSEFRQTMLADRRIRELVDFPVATEVFPGVEVKGGVCYFLWNAAREGDCNVTTVRGEELRSCTLQF,not soluble
8,DFKLDFKDIKGQEKAKRACMIAALGMHNILFEGSPGSGKSMCAKRLVYIMPPQSLSEILMQNAYMSLDSKDCEFTKIRAFRHPHHTSTRASIFGGGTKNARIGEVALANGGVLFFDEFPHFNKQIIESLREPLEDHKIHISRVNSKITYETKFSFIAAQNPCPCGNL,not soluble
9,MGSDKIHHHHHHMRYESSKKILVIEDDAVTRNLFLEVLEAQGFDTIGAEDGVAGIQKAQEHLPDLVICDIQMPDMDGYTVLARLRQDPHTAIIPFIFLTGSNTQTDVRKGMESGADDYLTKPSSIEDFLRAIAVRLEKQAFLRYWYATNSHQTAQSPPSSFNSESIFPSVPQLQAVFDFIEANYRQGITLSDVALAVGYSPAYLTNRVAKQTGETVNAWIVKRRMAAARPLLRDTNQTIDQIAIALGYQNTCHFSRQFRQHHGLSPKTWRKQQQLLQSSKNAKLQLIKNHDALEKLVPLGC,not soluble
10,MGSDKIHHHHHHMSIIFDKNLGILEKTIEEIQNEKKHILRTKYGINIKDNSIYDIINFPSSSIDKQISEVLKELFSKIKENGSYFNALKEDLSTPKSSTYEAIRKALLNVEGVKHINILSGPGTINLYLILQDDCFQDQEKKQIKIETKQNIWQAIYYTAPSGTVFKGDIEIEFLNKHNQKKTYKFSLGKKKYAYLKVVYKTEAKDAIYKEIDTQIRDIYNKILTDKYIEMGTSLRYQDFLAPVSIIRGIKELKIGICIKNDETKKITQLSDSDFTFNKDENTKEDEIIIFNTNKRLLINRE,not soluble
11,MGSDKIHHHHHHMDSMQTTETFQVLKIGADAYIKRRNQRLLSNHRKDLRKFTRAEAFTYLDIDAKTLDKYVATADFDPRRHEDSQWLINIEEMYQLRDLLPENLRKASKFKRSDNQKMQVIVIQNQKGGVGKTVSAATIASGLATEFHQEYRVGLIDMDGQATLSMYYAPEADLEGCLSVGDLMMNNFDLDEGETLEQVVSNAFLPTTIPNLRILPASQSDRAIEGWFHEQVFGQKLTSPYSLLNTIINAVQDEFDIIIIDTPPSLGYATYNAYFAATSVVFPLSITENDIDATCSYFSYIPQVWALLANANHRGYDFMKILITNHRDSATTTDLMNTLYDHFAPYMYSNEFKHSEAIRQSSSLLSTVFDMSKSEYPKSKATFQSAQQNCYEVTSQVLRDIVNVWREQEQA,not soluble
12,MEGPLSKWTNMVHGWQYRWFKIENDTLLYYTSREKMLKGQQRGQIRLTGAVVGIDGENNSLFTITVEGKTFHMQGRDLRERNQWVRILENSIRASSGYAKNVSVGTTPSQHFKQRTEEANEFLKTLVEKVKALEQLKSGERAVDEKKTIDSLIAASNNLTNNVKHAIIYLQMAQARLDPNMKTEKLMFTHPDLNEKPSSRETPGTVSDSTQTSTDKPISGIQHLDHLKPQRAESYASSDEEEFYDADEELIDLDNFESEKSGQESGDSNRTSDAAIMSSDEDGYDFGDSNEDFDEIYNNAEEHDIGNVQQDHGSVLMHLLSQVSVGMDLTKVTLPTFILERRSLLEMYADFFAHPDLFIATNGNDSAEKRMIAVVRYYLNSFYAARKSGVAKKPYNAILGETFRCRYSVPNSSLSGKKTESGPWPGSDEKQLTFIAEQVSHHPPISAFYAEMPSEGISFNAHIYTKSSFLGLSIGVASIGEGILTLHNYGDEQYTITFPSGYGRSIMSTPWFEFGGKVKVECEKTGYRADIEFLTKPFFGGKPHRIQGSICRDGAKKPVLTLRGEWNGTMYAKTQNGEEYVFVDVKAKPEVKKECVPVMQQGKRESRRLWRHVTAALLRNRIQTATTSKRFIEQRQRKEAKERLESGEKWTPLLFDTTDKDGEWMYKQKFGVRKAV,not soluble
13,VYRTPRTCSPHFPAGPARVINPGLHELHASAGDERDAPIGINFRSPRMRMAGEFVPDSGACDAAHGGSAAPTRKAGMRIGGAAAGKVE,not soluble
14,MGSDKIHHHHHHMTTLPYFQPAASPASAGEGSASLSPVIALKDLVARLDREQRKAQELLASLGFALRSFTNLGQFLELIPLIASRVTDTEGSLLLTFRPDGRFWQAQLHCTDPRLAETLNRIPASLPVGTAPSGSPTEAIAEIDRQVQRCLGRNAQLFATAVLVRNQARGRLYVFSLDGQYSWNESRQKLVRLVADQTAVAIENDALTTELRQKERLDRELEIGAEIQLQLLPSQCPAIEGLEIAAACRTASRVGGDYYDFIPTRTHSDEQGRLQPDAGSPWAIAIGDIMGKGVPAGLIMTMLRGMLRAEVLNRHRPSRVLAHLNQVIYADLEHSNRFATLFYSEYDPSSRLLTFSNAAHNPPLLWQQATGTLKRLDTFGMMIGLEADNAYAEQHVQLQPGDVVLYYTDGLTDAADPRGNRFDEENVAIAFREACRRRLSAEALLADLFNRVQRFIGPDRHNEDDMTLVVLRAV,not soluble
15,AMYEKPPVEKLIEELRQLKEKAYKGGGDERIQFQHSKGKLTARERLALLFDDGKFNEIMTFATTRATEFGLDKQRFYGDGVVTGWGKVDGRTVFAYAQDFTVLGGSLGETHANKIVRAYELALKVGAPVVGINDSGGARIQEGALSLEGYGAVFKMNVMASGVIPQITIMAGPAAGGAVYSPALTDFIIMIKGDAYYMFVTGPEITKVVLGEEVSFQDLGGAVVHATKSGVVHFMVDSEQEAINLTKRLLSYLPSNNMEEPPYIDTGDPADRDATGVEQIVPNDAAKPYNMREIIYKIVDNGEFLEVHKHWAQNIIVGFARIAGNVVGIVANNPEEFGGSIDIDAADKAARFIRFCDAFNIPLISLVDTPGYVPGTDQEYKGIIRHGAKMLYAFAEATVPKITVIVRKSYGGAHIAMSIKSLGADLVYAWPTAEIAVTGPEGAVRILYRKEIQQASNPDDVLKQRIAEYRKLFANPYWAAEKGLVDDVIEPKDTRRVIVAGLEMLKTKREYRYPKKHGNIPL,soluble

# From the DeepSol protein solubility set
